Source: US20090215120A1 (UNIVERSITY OF MEDICINE AND DENTISTRY OF NEW JERSEY, published 2009)

Columns and labels:
[1] = biological target: T1, EnvZc, the cytoplasmic domain of EnvZ (histidine kinase of E. coli) (E. coli, UniProt P0AEJ4 180-450); test: 10% native PAGE, 4 uM of each protein, 5 min at room temperature
T1 construct: domain: cytoplasmic domain of EnvZ; Purified EnvZc
T1 sequence: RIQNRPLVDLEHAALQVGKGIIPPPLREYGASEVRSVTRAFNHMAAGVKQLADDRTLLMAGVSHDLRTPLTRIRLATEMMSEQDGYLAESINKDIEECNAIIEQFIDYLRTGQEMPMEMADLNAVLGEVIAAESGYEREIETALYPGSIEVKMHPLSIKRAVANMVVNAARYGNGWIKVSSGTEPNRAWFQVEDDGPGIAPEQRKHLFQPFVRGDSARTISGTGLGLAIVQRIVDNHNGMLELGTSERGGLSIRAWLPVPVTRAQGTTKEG

[2] = biological target: T2, OmpR, transcription factor (response regulator) of E. coli, P0AA16
T2 chain: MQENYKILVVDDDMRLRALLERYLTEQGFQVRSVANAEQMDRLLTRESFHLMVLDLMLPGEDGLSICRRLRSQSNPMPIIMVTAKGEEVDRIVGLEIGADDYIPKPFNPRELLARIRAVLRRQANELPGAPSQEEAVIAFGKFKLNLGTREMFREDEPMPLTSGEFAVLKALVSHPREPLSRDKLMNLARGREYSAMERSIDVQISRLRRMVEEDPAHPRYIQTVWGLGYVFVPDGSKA

[3] = biological target: PrS2-OmpR (OmpR fused to two tandem repeats of the N-terminal domain, residues 1-92, of protein S of Myxococcus xanthus), P02966
[4] = biological target: T3, phosphorylated OmpR (OmpR-P), P0AA16
T3 chain: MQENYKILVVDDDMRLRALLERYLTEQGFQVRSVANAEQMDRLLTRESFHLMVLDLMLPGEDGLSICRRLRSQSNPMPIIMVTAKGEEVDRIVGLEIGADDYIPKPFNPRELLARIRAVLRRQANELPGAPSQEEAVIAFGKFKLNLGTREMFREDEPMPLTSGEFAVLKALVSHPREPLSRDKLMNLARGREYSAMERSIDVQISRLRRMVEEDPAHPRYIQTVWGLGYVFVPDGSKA

[5] = biological target: phosphorylated PrS2-OmpR (PrS2-OmpR-P)

PrS2-OmpR (OmpR fused to two tandem repeats of the N-terminal domain, residues 1-92, of protein S of Myxococcus xanthus), P02966, sequence (P02966 whole entry, looked up, the tested form may be a part): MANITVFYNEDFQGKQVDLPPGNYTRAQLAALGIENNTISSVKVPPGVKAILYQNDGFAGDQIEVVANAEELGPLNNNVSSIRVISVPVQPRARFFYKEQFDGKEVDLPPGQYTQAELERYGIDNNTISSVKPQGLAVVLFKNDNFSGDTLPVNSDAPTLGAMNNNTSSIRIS

B1: OmpR, transcription factor (response regulator) of E. coli (other)
chain: MQENYKILVVDDDMRLRALLERYLTEQGFQVRSVANAEQMDRLLTRESFHLMVLDLMLPGEDGLSICRRLRSQSNPMPIIMVTAKGEEVDRIVGLEIGADDYIPKPFNPRELLARIRAVLRRQANELPGAPSQEEAVIAFGKFKLNLGTREMFREDEPMPLTSGEFAVLKALVSHPREPLSRDKLMNLARGREYSAMERSIDVQISRLRRMVEEDPAHPRYIQTVWGLGYVFVPDGSKA
notes: Purified wild-type OmpR; also called wild-type OmpR; non-tagged OmpR
binding result [1]: binds

B2: phosphorylated EnvZc (EnvZc-P), 32P-labelled (protein)
chain: RIQNRPLVDLEHAALQVGKGIIPPPLREYGASEVRSVTRAFNHMAAGVKQLADDRTLLMAGVSHDLRTPLTRIRLATEMMSEQDGYLAESINKDIEECNAIIEQFIDYLRTGQEMPMEMADLNAVLGEVIAAESGYEREIETALYPGSIEVKMHPLSIKRAVANMVVNAARYGNGWIKVSSGTEPNRAWFQVEDDGPGIAPEQRKHLFQPFVRGDSARTISGTGLGLAIVQRIVDNHNGMLELGTSERGGLSIRAWLPVPVTRAQGTTKEG
phosphotransfer from 32P-labelled EnvZc-P to OmpR (SDS-PAGE, autoradiography) [2]: the phosphoryl group on EnvZ was instantly transferred to OmpR and this reaction was completed in 120 sec
phosphotransfer from 32P-labelled EnvZc-P to PrS2-OmpR (SDS-PAGE, autoradiography) [3]: EnvZc-P was able to phosphorylate PrS2-OmpR and the result was almost identical to the non-tagged OmpR

B3: EnvZc, the cytoplasmic domain of EnvZ (histidine kinase of E. coli) (protein)
chain: RIQNRPLVDLEHAALQVGKGIIPPPLREYGASEVRSVTRAFNHMAAGVKQLADDRTLLMAGVSHDLRTPLTRIRLATEMMSEQDGYLAESINKDIEECNAIIEQFIDYLRTGQEMPMEMADLNAVLGEVIAAESGYEREIETALYPGSIEVKMHPLSIKRAVANMVVNAARYGNGWIKVSSGTEPNRAWFQVEDDGPGIAPEQRKHLFQPFVRGDSARTISGTGLGLAIVQRIVDNHNGMLELGTSERGGLSIRAWLPVPVTRAQGTTKEG
dephosphorylation of OmpR-P by EnvZc upon addition of ADP (SDS-PAGE, autoradiography) [4]: OmpR-P was quickly dephosphorylated and Pi was released
dephosphorylation of PrS2-OmpR-P by EnvZc upon addition of ADP (SDS-PAGE, autoradiography) [5]: Although in case of PrS2-OmpR, this reaction was slowed by PrS2 tag, phosphorylated PTS2-OmpR was dephosphorylated by EnvZc
